Measured values published in EP2210617A1.

How the values were obtained:
[1] = target: GFRα2/Fc fusion protein (R&D Systems) (human); assay: GFRα2 ELISA (GFRα2/Fc on anti-Fc plate, Ret-AP detection) on conditioned medium of transfected HiB5 cells; reference is medium of wt NTN transfected cells
[2] = target: GFRα2/Fc fusion protein (R&D Systems) (human); assay: GFRα2 ELISA (GFRα2/Fc on anti-Fc plate, Ret-AP detection) on conditioned medium of transfected CHO cells; reference is medium of wt NTN transfected cells
[3] = target: GFRα2/Fc fusion protein (R&D Systems) (human); assay: GFRα2 ELISA (GFRα2/Fc on anti-Fc plate, Ret-AP detection) on conditioned medium of transfected ARPE-19 cells; reference is medium of wt NTN transfected cells
[4] = target: GFRα2/Fc fusion protein (R&D Systems) (human); assay: GFRα2 ELISA (GFRα2/Fc on anti-Fc plate, Ret-AP detection) on conditioned medium of transfected HEK293 cells; reference is medium of wt NTN transfected cells

fold higher NTN binding (relative GFRα2 binding activity, wt construct set to 1) [1] [fold]	fold higher NTN binding (relative GFRα2 binding activity, wt construct set to 1) [2] [fold]	fold higher NTN binding (relative GFRα2 binding activity, wt construct set to 1) [3] [fold]	fold higher NTN binding (relative GFRα2 binding activity, wt construct set to 1) [4] [fold]	Binder
7.5	4.1	117	90	mature human Neurturin secreted from cells transfected with the dpro-NTN construct (deltapro102NTN) (ligand) ARLGARPCGLRELEVRVSELGLGYASDETVLFRYCAGACEAAARVYDLGLRRLRQRRRLRRERVRAQPCCRPTAYEDEVSFLDAHSRYHTVHELSARECACV
162	66	771	278	mature human Neurturin secreted from cells transfected with the IgSP-NTN construct (IgSP-102NTN) (ligand) ARLGARPCGLRELEVRVSELGLGYASDETVLFRYCAGACEAAARVYDLGLRRLRQRRRLRRERVRAQPCCRPTAYEDEVSFLDAHSRYHTVHELSARECACV
